From publication PMC10139993

B1: Fused in sarcoma (FUS) wildtype with N-terminal GFP tag [not stated] / itself (parent)
chain: MASNDYTQQATQSYGAYPTQPGQGYSQQSSQPYGQQSYSGYSQSTDTSGYGQSSYSSYGQSQNTGYGTQSTPQGYGSTGGYGSSQSSQSSYGQQSSYPGYGQQPAPSSTSGSYGSSSQSSSYGQPQSGSYSQQPSYGGQQQSYGQQQSYNPPQGYGQQNQYNSSSGGGGGGGGGGNYGQDQSSMSSGGGSGGGYGNQDQSGGGGSGGYGQQDRGGRGRGGSGGGGGGGGGGYNRSSGGYEPRGRGGGRGGRGGMGGSDRGGFNKFGGPRDQGSRHDSEQDNSDNNTIFVQGLGENVTIESVADYFKQIGIIKTNKKTGQPMINLYTDRETGKLKGEATVSFDDPPSAKAAIDWFDGKEFSGNPIKVSFATRRADFNRGGGNGRGGRGRGGPMGRGGYGGGGSGGGGRGGFPSGGGGGGGQQRAGDWKCPNPTCENMNFSWRNECNQCKAPKPDGPGGGPGGSHMGGNYGDDRRGGRGGYDRGGYRGRGGDRGGFRGGRGGGDRGGFGPGKMDSRGEHRQDRRERPY

Variants of: B1
Experiment: SiMPull photobleaching step analysis
Conditions: with itself, read off a plot

| Variant | photobleaching steps (0.4M sorbitol 4 hr) [steps] | photobleaching steps (no stress) [steps] | photobleaching steps (without stress) [steps] |
| --- | --- | --- | --- |
| chain 1 G156E | 2 | 1.6 | 1.6 |
| chain 1 G187S | 2.5 |  |  |
| chain 1 R216C | 2.2 | 2.2 | 2.2 |
| chain 1 R244C | 2.1 | 2.1 | 2.1 |
